Laboratory results reported in patent US20230357420A1 (VILLARIS THERAPEUTICS, published 2023).
Where two headings read alike, the source gives them in different places.

Key:
Human CD122 [1] = target: T1, Human CD122 (human, UniProt P14784 27-551); experiment: flow cytometry (FACS) on huIL15Rβ-transfected CHO-K1 cells, anti-human IgG-FITC, GeoMFI
T1 construct: also called hCD122; IL2RB
T1 sequence: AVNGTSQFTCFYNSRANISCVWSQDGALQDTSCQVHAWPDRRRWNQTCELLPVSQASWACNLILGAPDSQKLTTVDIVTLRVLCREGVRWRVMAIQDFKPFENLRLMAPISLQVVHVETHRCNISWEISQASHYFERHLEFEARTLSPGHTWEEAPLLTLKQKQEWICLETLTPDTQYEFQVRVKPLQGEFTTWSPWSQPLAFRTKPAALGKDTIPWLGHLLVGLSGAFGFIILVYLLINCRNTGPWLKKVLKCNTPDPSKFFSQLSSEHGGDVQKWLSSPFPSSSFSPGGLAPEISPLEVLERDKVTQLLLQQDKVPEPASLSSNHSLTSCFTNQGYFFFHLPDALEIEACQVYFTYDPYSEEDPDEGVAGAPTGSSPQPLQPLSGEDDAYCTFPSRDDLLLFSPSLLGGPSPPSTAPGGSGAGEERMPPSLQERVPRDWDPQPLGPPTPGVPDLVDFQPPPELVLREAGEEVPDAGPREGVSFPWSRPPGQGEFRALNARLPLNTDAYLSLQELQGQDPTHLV
Description: (§1) Purified IgGs were tested in FACs for binding to human and rhesus CD122 expressed on CHO-K1 stable cell lines and CHO-K1 wild-type cells. The IgG samples were titrated in three-fold serial dilutions starting at 500 nM to […]. Binding of IgGs was detected with a mouse anti-human IgG conjugated to FITC. Results were analyzed by examining the Mean Fluorescence Intensity (MFI) of 10000 cells per sample in the BL-1 channel detector of a flow cytometer (AttuneTM NxT Acoustic Focusing Cytometer, Invitrogen/ ThermoFisher Scientific).

Human CD122 [2] = target: T1, Human CD122; experiment: cell-based or functional assay
Human CD122 [3] = target: T1, Human CD122; experiment: flow cytometry (FACS) on huIL15Rβ-transfected CHO-K1 cells, anti-human IgG-FITC, GeoMFI; remark: listed apart in the source
Description: as §1

Neudesin = target: T2, Neudesin (human, UniProt Q9UMX5 32-172); experiment: Retrogenix cell microarray
T2 construct: whole, on cells; Secreted protein; the tether is not described; also called NENF; neudesin neurotrophic factor (on transfected cells)
T2 sequence (Q9UMX5 32-172): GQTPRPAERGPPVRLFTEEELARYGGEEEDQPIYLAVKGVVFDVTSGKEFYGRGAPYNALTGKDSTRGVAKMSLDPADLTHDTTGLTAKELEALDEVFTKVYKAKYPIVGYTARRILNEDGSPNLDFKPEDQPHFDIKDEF

CILP2 = target: T3, CILP2 (human, UniProt Q8IUL8 21-1156); experiment: Retrogenix cell microarray
T3 construct: whole, on cells; Secreted protein; tether not described; also called cartilage intermediate layer protein 2 (on transfected cells)
T3 sequence (looked up): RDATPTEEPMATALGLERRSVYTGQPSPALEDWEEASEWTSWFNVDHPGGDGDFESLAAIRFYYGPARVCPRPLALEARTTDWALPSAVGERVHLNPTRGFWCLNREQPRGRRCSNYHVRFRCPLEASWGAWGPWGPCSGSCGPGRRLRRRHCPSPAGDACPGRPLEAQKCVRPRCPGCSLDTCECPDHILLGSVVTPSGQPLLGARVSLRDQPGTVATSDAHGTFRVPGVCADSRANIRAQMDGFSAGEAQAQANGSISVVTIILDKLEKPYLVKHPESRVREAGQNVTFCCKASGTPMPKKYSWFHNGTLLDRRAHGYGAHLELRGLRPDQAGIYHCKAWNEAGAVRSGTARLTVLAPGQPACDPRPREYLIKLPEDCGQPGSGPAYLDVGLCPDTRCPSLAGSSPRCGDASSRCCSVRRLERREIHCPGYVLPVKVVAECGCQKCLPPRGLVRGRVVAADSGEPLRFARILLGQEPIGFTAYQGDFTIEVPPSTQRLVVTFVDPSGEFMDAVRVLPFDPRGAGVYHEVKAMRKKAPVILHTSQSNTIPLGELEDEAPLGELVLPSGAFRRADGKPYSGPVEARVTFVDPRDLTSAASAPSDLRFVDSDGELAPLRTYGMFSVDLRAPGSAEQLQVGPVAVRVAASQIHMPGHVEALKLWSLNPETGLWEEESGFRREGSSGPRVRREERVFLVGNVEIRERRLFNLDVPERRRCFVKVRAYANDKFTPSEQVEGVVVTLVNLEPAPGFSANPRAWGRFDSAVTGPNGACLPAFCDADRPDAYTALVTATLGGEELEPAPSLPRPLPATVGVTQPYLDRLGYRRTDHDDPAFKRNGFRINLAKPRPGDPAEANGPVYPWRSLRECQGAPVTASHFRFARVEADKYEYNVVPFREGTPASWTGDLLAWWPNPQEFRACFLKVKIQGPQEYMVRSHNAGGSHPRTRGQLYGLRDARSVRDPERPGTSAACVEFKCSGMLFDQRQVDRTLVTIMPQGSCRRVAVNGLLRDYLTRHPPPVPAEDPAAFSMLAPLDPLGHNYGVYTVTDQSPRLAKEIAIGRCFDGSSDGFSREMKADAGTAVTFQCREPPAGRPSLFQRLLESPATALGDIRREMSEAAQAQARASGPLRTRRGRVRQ

Rhesus CD122 = target: T4, Rhesus CD122 (rhesus monkey, UniProt Q38J85 27-551 (cynomolgus entry)); experiment: flow cytometry (FACS) on rhIL15Rβ-transfected CHO-K1 cells, anti-human IgG-FITC, GeoMFI
T4 construct: also called rhCD122 on cells
T4 sequence: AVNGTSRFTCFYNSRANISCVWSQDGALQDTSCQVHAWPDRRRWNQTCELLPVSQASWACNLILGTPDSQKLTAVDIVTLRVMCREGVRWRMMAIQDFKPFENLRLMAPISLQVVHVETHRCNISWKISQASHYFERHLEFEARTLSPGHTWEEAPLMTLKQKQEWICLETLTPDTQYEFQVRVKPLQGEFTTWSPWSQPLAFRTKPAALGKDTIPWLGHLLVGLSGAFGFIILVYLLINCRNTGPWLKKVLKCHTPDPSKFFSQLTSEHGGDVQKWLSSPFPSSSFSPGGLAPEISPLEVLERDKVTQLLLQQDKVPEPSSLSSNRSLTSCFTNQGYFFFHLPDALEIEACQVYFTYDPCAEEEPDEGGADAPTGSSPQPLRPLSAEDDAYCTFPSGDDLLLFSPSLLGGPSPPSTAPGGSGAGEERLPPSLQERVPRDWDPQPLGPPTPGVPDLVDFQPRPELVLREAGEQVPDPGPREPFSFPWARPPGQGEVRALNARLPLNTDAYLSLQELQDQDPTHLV
Description: as §1

Human CD122 [4] = target: T1, Human CD122; experiment: flow cytometry (FACS) on huIL15Rβ-transfected CHO-K1 cells, anti-human IgG-FITC, GeoMFI; remark: listed apart in the source
Description: as §1

B1: IgG1-MIKβ1 (humanized) (antibody, V domains shown)
VH: EVQLLESGGGLVQPGGSLRLSCAASGFSVTSYGVHWIRQAPGKGLEWLGVIWSGGSTDYNAAFISRLTISKDNSKNTVYFQMNSLQAEDTAIYYCARAGDYNYDGFAYWGQGTLVTVSS
VL: DIVLTQSPSSLSASVGDRVTITCSGSSSVSFMYWYQQRPGKAPRLLIYDTSNLASGVPSRFSGSGSGTSYTFTISSLQPEDIATYYCQQWSTYPLTFGQGTKVEVK
notes: also called VillMab-1; VillMAB-1
Which “EC50 (read off the curve)” value (Human CD122 [1]) does the source give for B1 here?
The value was about 0.9 nM.

And the “IC50, IL-15-induced M07e cell proliferation” value (Human CD122 [2])?
The value was 9.79 µg/mL.

What about the “EC50 (read off the curve)” value (Human CD122 [3]) of the same binder?
The value was about 0.9 nM.

Does B1 bind (Neudesin)?
Result: no binding

Does B1 bind (CILP2)?
Result: no binding

What about the “EC50 (read off the curve)” value (Rhesus CD122) of the same binder?
Its value is about 0.7 nM.

And the “EC50 (read off the curve)” value (Human CD122 [4])?
The value was about 0.9 nM.
